Reference: patent US20120172293A1 (Takeda / Millennium, published 2012)
Non-standard residues stand in square brackets, D forms with d. *: point of attachment. Lys(Me2) = CN(C)CCCC[C@H](N)C(=O)O; tBuAla = CC(C)(C)C[C@H](N)C(=O)O; 4Pal = N[C@@H](Cc1ccncc1)C(=O)O; Cha = N[C@@H](CC1CCCCC1)C(=O)O; dIva = CC[C@@](C)(N)C(=O)O; Isobutyryl = CC(C)C(=O)*; Iva = CC[C@](C)(N)C(=O)O; Nle = CCCC[C@H](N)C(=O)O; Dab = NCC[C@H](N)C(=O)O; Aib = CC(C)(N)C(=O)O

B1: Ac-[D-Pro24, D-Iva25, Cha27,28,36, Aib31]-PYY(23-36) (peptide)
peptide: Ac-S[dP][dIva]H[Cha][Cha]NL[Aib]TRQR[Cha]-NH2
SMILES: CC[C@@](C)(NC(=O)[C@H]1CCCN1C(=O)[C@H](CO)NC(C)=O)C(=O)N[C@@H](Cc1c[nH]cn1)C(=O)N[C@@H](CC1CCCCC1)C(=O)N[C@@H](CC1CCCCC1)C(=O)N[C@@H](CC(N)=O)C(=O)N[C@@H](CC(C)C)C(=O)NC(C)(C)C(=O)N[C@H](C(=O)N[C@@H](CCCNC(=N)N)C(=O)N[C@@H](CCC(N)=O)C(=O)N[C@@H](CCCNC(=N)N)C(=O)N[C@@H](CC1CCCCC1)C(N)=O)[C@@H](C)O
B2: Ac-[D-Pro24, Cha27,28,36, Dab30, Aib31]-PYY(23-36) (peptide)
peptide: Ac-S[dP]RH[Cha][Cha]N[Dab][Aib]TRQR[Cha]-NH2
SMILES: CC(=O)N[C@@H](CO)C(=O)N1CCC[C@@H]1C(=O)N[C@@H](CCCNC(=N)N)C(=O)N[C@@H](Cc1c[nH]cn1)C(=O)N[C@@H](CC1CCCCC1)C(=O)N[C@@H](CC1CCCCC1)C(=O)N[C@@H](CC(N)=O)C(=O)N[C@@H](CCN)C(=O)NC(C)(C)C(=O)N[C@H](C(=O)N[C@@H](CCCNC(=N)N)C(=O)N[C@@H](CCC(N)=O)C(=O)N[C@@H](CCCNC(=N)N)C(=O)N[C@@H](CC1CCCCC1)C(N)=O)[C@@H](C)O
B3: Ac-[Glu23, D-Pro24, Pya(4)26, Cha27,36, Leu(Me)28, Lys30, Aib31]-PYY(23-36) (peptide)
peptide: Ac-E[dP]R[4Pal][Cha][tBuAla]NK[Aib]TRQR[Cha]-NH2
SMILES: CC(=O)N[C@@H](CCC(=O)O)C(=O)N1CCC[C@@H]1C(=O)N[C@@H](CCCNC(=N)N)C(=O)N[C@@H](Cc1ccncc1)C(=O)N[C@@H](CC1CCCCC1)C(=O)N[C@@H](CC(C)(C)C)C(=O)N[C@@H](CC(N)=O)C(=O)N[C@@H](CCCCN)C(=O)NC(C)(C)C(=O)N[C@H](C(=O)N[C@@H](CCCNC(=N)N)C(=O)N[C@@H](CCC(N)=O)C(=O)N[C@@H](CCCNC(=N)N)C(=O)N[C@@H](CC1CCCCC1)C(N)=O)[C@@H](C)O
B4: Ac-[D-Pro24, Iva26, Cha27,28,36, Aib31]-PYY(23-36) (peptide)
peptide: Ac-S[dP]R[Iva][Cha][Cha]NL[Aib]TRQR[Cha]-NH2
SMILES: CC[C@](C)(NC(=O)[C@H](CCCNC(=N)N)NC(=O)[C@H]1CCCN1C(=O)[C@H](CO)NC(C)=O)C(=O)N[C@@H](CC1CCCCC1)C(=O)N[C@@H](CC1CCCCC1)C(=O)N[C@@H](CC(N)=O)C(=O)N[C@@H](CC(C)C)C(=O)NC(C)(C)C(=O)N[C@H](C(=O)N[C@@H](CCCNC(=N)N)C(=O)N[C@@H](CCC(N)=O)C(=O)N[C@@H](CCCNC(=N)N)C(=O)N[C@@H](CC1CCCCC1)C(N)=O)[C@@H](C)O
B5: Ac-[D-Pro24, Cha27,28,36, Lys(Me2)30, Aib31]-PYY(23-36) (peptide)
peptide: Ac-S[dP]RH[Cha][Cha]N[Lys(Me2)][Aib]TRQR[Cha]-NH2
SMILES: CC(=O)N[C@@H](CO)C(=O)N1CCC[C@@H]1C(=O)N[C@@H](CCCNC(=N)N)C(=O)N[C@@H](Cc1c[nH]cn1)C(=O)N[C@@H](CC1CCCCC1)C(=O)N[C@@H](CC1CCCCC1)C(=O)N[C@@H](CC(N)=O)C(=O)N[C@@H](CCCCN(C)C)C(=O)NC(C)(C)C(=O)N[C@H](C(=O)N[C@@H](CCCNC(=N)N)C(=O)N[C@@H](CCC(N)=O)C(=O)N[C@@H](CCCNC(=N)N)C(=O)N[C@@H](CC1CCCCC1)C(N)=O)[C@@H](C)O
B6: Ac-[D-Pro24, Iva25, Cha27,28,36, Aib31]-PYY(23-36) (peptide)
peptide: Ac-S[dP][Iva]H[Cha][Cha]NL[Aib]TRQR[Cha]-NH2
SMILES: CC[C@](C)(NC(=O)[C@H]1CCCN1C(=O)[C@H](CO)NC(C)=O)C(=O)N[C@@H](Cc1c[nH]cn1)C(=O)N[C@@H](CC1CCCCC1)C(=O)N[C@@H](CC1CCCCC1)C(=O)N[C@@H](CC(N)=O)C(=O)N[C@@H](CC(C)C)C(=O)NC(C)(C)C(=O)N[C@H](C(=O)N[C@@H](CCCNC(=N)N)C(=O)N[C@@H](CCC(N)=O)C(=O)N[C@@H](CCCNC(=N)N)C(=O)N[C@@H](CC1CCCCC1)C(N)=O)[C@@H](C)O
B7: Ac-[D-Pro24, Cha27,28,36, D-Iva29, Aib31]-PYY(23-36) (peptide)
peptide: Ac-S[dP]RH[Cha][Cha][dIva]L[Aib]TRQR[Cha]-NH2
SMILES: CC[C@@](C)(NC(=O)[C@H](CC1CCCCC1)NC(=O)[C@H](CC1CCCCC1)NC(=O)[C@H](Cc1c[nH]cn1)NC(=O)[C@H](CCCNC(=N)N)NC(=O)[C@H]1CCCN1C(=O)[C@H](CO)NC(C)=O)C(=O)N[C@@H](CC(C)C)C(=O)NC(C)(C)C(=O)N[C@H](C(=O)N[C@@H](CCCNC(=N)N)C(=O)N[C@@H](CCC(N)=O)C(=O)N[C@@H](CCCNC(=N)N)C(=O)N[C@@H](CC1CCCCC1)C(N)=O)[C@@H](C)O
B8: Ac-[Glu23, D-Pro24, Nle25, Pya(4)26, Cha27,28,36, Lys30, Aib31]-PYY(23-36) (peptide)
peptide: Ac-E[dP][Nle][4Pal][Cha][Cha]NK[Aib]TRQR[Cha]-NH2
SMILES: CCCC[C@H](NC(=O)[C@H]1CCCN1C(=O)[C@H](CCC(=O)O)NC(C)=O)C(=O)N[C@@H](Cc1ccncc1)C(=O)N[C@@H](CC1CCCCC1)C(=O)N[C@@H](CC1CCCCC1)C(=O)N[C@@H](CC(N)=O)C(=O)N[C@@H](CCCCN)C(=O)NC(C)(C)C(=O)N[C@H](C(=O)N[C@@H](CCCNC(=N)N)C(=O)N[C@@H](CCC(N)=O)C(=O)N[C@@H](CCCNC(=N)N)C(=O)N[C@@H](CC1CCCCC1)C(N)=O)[C@@H](C)O
B9: Ac-[D-Pro24, D-Iva26, Cha27,28,36, Aib31]-PYY(23-36) (peptide)
peptide: Ac-S[dP]R[dIva][Cha][Cha]NL[Aib]TRQR[Cha]-NH2
SMILES: CC[C@@](C)(NC(=O)[C@H](CCCNC(=N)N)NC(=O)[C@H]1CCCN1C(=O)[C@H](CO)NC(C)=O)C(=O)N[C@@H](CC1CCCCC1)C(=O)N[C@@H](CC1CCCCC1)C(=O)N[C@@H](CC(N)=O)C(=O)N[C@@H](CC(C)C)C(=O)NC(C)(C)C(=O)N[C@H](C(=O)N[C@@H](CCCNC(=N)N)C(=O)N[C@@H](CCC(N)=O)C(=O)N[C@@H](CCCNC(=N)N)C(=O)N[C@@H](CC1CCCCC1)C(N)=O)[C@@H](C)O
B10: Isobutanoyl-[Glu23, D-Pro24, Pya(4)26, Cha27,36, Leu(Me)28, Lys30, Aib31]-PYY(23-36) (peptide)
peptide: Isobutyryl-E[dP]R[4Pal][Cha][tBuAla]NK[Aib]TRQR[Cha]-NH2
SMILES: CC(C)C(=O)N[C@@H](CCC(=O)O)C(=O)N1CCC[C@@H]1C(=O)N[C@@H](CCCNC(=N)N)C(=O)N[C@@H](Cc1ccncc1)C(=O)N[C@@H](CC1CCCCC1)C(=O)N[C@@H](CC(C)(C)C)C(=O)N[C@@H](CC(N)=O)C(=O)N[C@@H](CCCCN)C(=O)NC(C)(C)C(=O)N[C@H](C(=O)N[C@@H](CCCNC(=N)N)C(=O)N[C@@H](CCC(N)=O)C(=O)N[C@@H](CCCNC(=N)N)C(=O)N[C@@H](CC1CCCCC1)C(N)=O)[C@@H](C)O

Target: human Y2 receptor (human) (UniProt P49146)
Assay: RBA: [125I]-PYY displacement, hY2R/CHO membranes

human Y2 receptor (human), sequence (P49146 whole entry): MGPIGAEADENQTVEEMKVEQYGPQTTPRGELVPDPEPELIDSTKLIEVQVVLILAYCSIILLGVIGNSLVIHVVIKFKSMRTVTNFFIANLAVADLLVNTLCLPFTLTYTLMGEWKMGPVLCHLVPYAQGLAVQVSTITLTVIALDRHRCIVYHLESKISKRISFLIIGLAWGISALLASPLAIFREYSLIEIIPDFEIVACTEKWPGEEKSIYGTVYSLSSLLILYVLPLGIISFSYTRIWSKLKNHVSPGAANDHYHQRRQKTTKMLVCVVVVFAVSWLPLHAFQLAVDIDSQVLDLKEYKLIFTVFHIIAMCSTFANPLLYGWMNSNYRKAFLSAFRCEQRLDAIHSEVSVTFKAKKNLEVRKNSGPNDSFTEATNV

IC50 Ratio (vs PYY(3-36)) | Binder
14 | B1
2.6 | B2
0.48 | B3
5.2 | B4
0.8 | B5
4.5 | B6
71 | B7
2.3 | B8
19 | B9
0.43 | B10

Target: human Y2 receptor (human) (UniProt P49146)
Assay: cell-based or functional assay

GBA EC50 Ratio (vs PYY(3-36)), [35S]GTPγS | Binder
11 | B1
1.6 | B2
0.86 | B3
4.2 | B4
0.7 | B5
3.7 | B6
37 | B7
1.3 | B8
13 | B9
0.88 | B10
